Results from the supplement of paper PMC10065799, “High-throughput profiling of sequence recognition by tyrosine kinases and SH2 domains using bacterial peptide display” (eLife, 2023).

Key:
FGFR1 = FGFR1 (UniProt P11362); assay: phosphorylation enrichment, bacterial display (enrichment ratio); higher = better substrate or ligand; peptides without Tyr show the background
Fer (mouse) = assay: as above
Fyn = Fyn (UniProt P06241); assay: as above
AncSZ = assay: as above
c-Src = assay: as above
EPHB1 = EPHB1 (UniProt P54762); assay: as above
EPHB1, sequence (P54762 whole entry, looked up): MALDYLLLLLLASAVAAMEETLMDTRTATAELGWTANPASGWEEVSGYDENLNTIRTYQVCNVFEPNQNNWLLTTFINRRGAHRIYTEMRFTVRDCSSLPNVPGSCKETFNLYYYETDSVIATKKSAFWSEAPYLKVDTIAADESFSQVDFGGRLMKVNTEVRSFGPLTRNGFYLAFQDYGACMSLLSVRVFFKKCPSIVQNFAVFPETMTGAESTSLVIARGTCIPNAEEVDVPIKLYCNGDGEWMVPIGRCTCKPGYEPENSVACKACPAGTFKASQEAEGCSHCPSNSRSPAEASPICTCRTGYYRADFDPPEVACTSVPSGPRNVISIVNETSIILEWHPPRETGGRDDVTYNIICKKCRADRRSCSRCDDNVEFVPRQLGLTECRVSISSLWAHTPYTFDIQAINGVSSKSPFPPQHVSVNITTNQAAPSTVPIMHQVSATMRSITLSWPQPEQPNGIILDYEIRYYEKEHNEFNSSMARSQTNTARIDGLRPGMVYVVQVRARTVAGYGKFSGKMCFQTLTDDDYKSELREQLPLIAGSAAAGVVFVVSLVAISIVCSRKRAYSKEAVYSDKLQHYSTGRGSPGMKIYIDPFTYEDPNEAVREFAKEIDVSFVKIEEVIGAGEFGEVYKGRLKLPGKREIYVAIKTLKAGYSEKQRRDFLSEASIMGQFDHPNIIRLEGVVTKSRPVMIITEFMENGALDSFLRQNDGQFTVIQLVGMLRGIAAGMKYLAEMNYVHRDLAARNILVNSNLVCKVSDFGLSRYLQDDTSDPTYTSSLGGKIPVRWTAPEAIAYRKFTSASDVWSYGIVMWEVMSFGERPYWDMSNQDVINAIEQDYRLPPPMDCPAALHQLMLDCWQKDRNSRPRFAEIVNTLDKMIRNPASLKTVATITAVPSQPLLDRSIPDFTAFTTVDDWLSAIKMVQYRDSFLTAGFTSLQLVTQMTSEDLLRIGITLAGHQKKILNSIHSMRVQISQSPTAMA

MERTK = MERTK (UniProt Q12866); assay: as above
MERTK, sequence (Q12866 whole entry, looked up): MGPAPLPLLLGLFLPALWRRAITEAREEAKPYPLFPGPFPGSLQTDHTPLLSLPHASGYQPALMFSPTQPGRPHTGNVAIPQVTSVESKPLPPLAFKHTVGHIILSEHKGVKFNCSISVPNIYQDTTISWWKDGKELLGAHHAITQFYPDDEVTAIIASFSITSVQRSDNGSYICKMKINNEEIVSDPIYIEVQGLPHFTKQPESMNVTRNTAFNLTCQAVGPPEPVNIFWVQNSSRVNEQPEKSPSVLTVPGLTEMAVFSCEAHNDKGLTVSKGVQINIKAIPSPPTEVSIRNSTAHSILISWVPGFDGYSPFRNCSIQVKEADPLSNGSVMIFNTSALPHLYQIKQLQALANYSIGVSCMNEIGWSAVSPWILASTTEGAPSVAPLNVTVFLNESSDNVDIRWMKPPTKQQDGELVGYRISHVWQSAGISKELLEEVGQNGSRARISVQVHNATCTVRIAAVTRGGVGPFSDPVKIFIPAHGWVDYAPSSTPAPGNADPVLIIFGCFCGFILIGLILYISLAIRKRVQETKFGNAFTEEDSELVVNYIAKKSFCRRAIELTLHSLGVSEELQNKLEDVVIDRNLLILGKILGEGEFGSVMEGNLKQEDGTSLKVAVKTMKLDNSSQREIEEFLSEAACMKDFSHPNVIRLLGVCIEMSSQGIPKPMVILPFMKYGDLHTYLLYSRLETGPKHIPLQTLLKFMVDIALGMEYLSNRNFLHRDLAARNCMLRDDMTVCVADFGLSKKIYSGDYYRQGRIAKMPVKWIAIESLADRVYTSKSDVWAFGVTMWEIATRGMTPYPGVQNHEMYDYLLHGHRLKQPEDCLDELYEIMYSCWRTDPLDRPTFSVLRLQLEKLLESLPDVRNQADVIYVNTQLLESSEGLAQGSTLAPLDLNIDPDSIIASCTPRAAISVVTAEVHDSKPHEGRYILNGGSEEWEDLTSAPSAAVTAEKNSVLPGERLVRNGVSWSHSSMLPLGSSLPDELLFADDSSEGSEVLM

Jak2 = Jak2 (UniProt O60674); assay: as above
Jak2, sequence (O60674 whole entry, looked up): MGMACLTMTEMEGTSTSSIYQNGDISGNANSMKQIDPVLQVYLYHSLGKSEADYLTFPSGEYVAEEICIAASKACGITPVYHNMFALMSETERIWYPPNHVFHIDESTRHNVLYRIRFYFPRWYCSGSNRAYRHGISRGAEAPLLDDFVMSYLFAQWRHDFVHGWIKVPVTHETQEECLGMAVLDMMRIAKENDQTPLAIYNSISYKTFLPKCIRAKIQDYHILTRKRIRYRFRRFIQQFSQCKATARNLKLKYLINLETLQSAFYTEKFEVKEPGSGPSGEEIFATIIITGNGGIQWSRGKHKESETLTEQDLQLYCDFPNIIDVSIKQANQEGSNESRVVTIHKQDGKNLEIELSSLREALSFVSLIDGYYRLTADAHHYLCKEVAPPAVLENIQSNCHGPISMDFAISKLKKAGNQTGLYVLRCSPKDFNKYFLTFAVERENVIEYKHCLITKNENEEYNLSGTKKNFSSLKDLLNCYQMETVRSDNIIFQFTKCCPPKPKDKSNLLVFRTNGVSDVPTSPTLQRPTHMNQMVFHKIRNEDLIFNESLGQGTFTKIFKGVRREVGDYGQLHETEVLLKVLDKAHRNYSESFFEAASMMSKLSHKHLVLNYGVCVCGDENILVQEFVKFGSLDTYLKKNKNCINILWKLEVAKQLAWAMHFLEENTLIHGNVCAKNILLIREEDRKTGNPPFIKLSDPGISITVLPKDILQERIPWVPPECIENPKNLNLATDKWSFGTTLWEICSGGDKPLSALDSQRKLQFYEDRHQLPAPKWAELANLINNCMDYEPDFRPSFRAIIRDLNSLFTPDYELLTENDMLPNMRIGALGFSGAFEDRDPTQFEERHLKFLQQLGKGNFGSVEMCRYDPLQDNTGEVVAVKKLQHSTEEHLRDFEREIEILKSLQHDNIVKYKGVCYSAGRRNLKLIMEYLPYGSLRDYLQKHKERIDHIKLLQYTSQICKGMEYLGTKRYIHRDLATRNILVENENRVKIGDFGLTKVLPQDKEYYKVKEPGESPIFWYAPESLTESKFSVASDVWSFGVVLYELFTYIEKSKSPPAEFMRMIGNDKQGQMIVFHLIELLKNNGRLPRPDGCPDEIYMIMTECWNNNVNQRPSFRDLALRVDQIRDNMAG

Hck = Hck (UniProt P08631); assay: as above
c-Abl (mouse) = assay: as above
Fes = Fes (UniProt P07332); assay: as above
Fes, sequence (P07332 whole entry, looked up): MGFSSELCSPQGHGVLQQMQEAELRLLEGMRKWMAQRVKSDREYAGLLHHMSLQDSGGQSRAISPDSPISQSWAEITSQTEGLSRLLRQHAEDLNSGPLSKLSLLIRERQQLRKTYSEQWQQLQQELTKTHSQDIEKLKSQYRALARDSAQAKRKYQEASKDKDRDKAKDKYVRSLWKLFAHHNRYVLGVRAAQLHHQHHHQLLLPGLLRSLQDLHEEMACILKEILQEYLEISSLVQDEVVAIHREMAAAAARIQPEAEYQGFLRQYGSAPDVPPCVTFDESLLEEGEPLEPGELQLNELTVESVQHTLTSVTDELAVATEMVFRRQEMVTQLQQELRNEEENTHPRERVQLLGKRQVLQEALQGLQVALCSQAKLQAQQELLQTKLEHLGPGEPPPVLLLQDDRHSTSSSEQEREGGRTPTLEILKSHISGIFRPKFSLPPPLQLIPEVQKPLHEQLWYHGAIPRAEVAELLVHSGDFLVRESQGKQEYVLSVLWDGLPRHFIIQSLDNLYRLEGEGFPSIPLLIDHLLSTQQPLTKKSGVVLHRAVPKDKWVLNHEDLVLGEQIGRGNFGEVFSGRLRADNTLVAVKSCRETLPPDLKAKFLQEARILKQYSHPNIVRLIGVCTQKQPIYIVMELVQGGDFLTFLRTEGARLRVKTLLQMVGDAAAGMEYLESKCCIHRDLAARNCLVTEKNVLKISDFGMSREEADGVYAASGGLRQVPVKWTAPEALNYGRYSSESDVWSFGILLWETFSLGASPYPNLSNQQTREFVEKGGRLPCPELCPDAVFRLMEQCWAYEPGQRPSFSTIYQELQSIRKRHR

EPHB2 = EPHB2 (UniProt P29323); assay: as above
FGFR3 = FGFR3 (UniProt P22607); assay: as above
Grb2 SH2 = Grb2 SH2 (UniProt P62993); assay: SH2 binding enrichment of the phosphorylated peptide, bacterial display (enrichment ratio); higher = better substrate or ligand; peptides without Tyr show the background
Grb2 SH2, sequence (P62993 whole entry, looked up): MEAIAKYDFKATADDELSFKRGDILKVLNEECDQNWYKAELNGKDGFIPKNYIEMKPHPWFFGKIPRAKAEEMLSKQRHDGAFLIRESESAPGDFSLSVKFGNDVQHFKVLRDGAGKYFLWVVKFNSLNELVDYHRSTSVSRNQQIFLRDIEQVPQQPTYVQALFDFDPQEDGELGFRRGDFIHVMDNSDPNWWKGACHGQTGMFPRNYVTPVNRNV

c-Src SH2 = assay: as above
SHP2-C SH2 = assay: as above
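Throughout, for SH2 binding enrichment of the phosphorylated peptide, bacterial display: peptide library displayed on the E. coli surface as eCPX fusions, selected cells deep-sequenced, score is each peptide's frequency after selection divided by its frequency in the input.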
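Throughout, for phosphorylation enrichment, bacterial display: 11-residue human phosphosite peptides and single-mutation variants displayed on the E. coli surface, counted by deep sequencing, each peptide's frequency after selection divided by its frequency in the unselected input library; frequency after pTyr selection over input frequency; kinase dosed for 20-30% of maximal phosphorylation in three min.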

Fyn, sequence (P06241 whole entry, looked up): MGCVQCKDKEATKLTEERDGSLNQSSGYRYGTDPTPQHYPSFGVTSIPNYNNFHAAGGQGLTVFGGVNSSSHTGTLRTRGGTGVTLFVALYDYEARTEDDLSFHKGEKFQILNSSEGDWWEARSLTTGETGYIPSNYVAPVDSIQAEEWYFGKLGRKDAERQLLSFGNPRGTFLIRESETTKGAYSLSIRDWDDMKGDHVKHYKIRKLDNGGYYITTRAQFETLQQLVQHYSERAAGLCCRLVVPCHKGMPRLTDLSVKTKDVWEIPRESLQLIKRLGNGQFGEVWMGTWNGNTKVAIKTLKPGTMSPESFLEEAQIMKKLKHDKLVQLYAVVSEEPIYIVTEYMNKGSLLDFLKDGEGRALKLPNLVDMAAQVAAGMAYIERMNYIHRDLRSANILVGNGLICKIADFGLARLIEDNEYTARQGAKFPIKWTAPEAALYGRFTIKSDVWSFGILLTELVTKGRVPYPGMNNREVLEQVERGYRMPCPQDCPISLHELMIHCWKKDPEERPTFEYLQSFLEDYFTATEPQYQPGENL

Work on GIMEEYQLPFF [BMPR1A_Y453_V450M_YF] yielded a phosphorylation enrichment (FGFR1) of 1.7, a phosphorylation enrichment (Fer (mouse)) of 0.587 and a phosphorylation enrichment (Fyn) of 1.2. For the same sequence, the phosphorylation enrichment (AncSZ) was 4.83, the phosphorylation enrichment (c-Src) was 0.894 and the phosphorylation enrichment (EPHB1) was 0.648. The phosphorylation enrichment (MERTK) was 0.499, the phosphorylation enrichment (Jak2) was 1.09 and the phosphorylation enrichment (Hck) was 0.676. The phosphorylation enrichment (c-Abl (mouse)) was 2.27, the phosphorylation enrichment (Fes) was 1.11 and the phosphorylation enrichment (EPHB2) was 0.914. The phosphorylation enrichment (FGFR3) was 1.32, the SH2 binding enrichment (Grb2 SH2) was 0.719 and the SH2 binding enrichment (c-Src SH2) was 0.49. It also gave an SH2 binding enrichment (SHP2-C SH2) of 0.464.

GIVEDYRPPFY [ACVRL1_Y421] was tested, and the phosphorylation enrichment (FGFR1) was 0.445, the phosphorylation enrichment (Fer (mouse)) was 0.457 and the phosphorylation enrichment (Fyn) was 0.49. The phosphorylation enrichment (AncSZ) was 0.981, the phosphorylation enrichment (c-Src) was 0.434 and the phosphorylation enrichment (EPHB1) was 0.522. For the same sequence, the phosphorylation enrichment (MERTK) was 0.406, the phosphorylation enrichment (Jak2) was 0.831 and the phosphorylation enrichment (Hck) was 0.427. For the same sequence, the phosphorylation enrichment (c-Abl (mouse)) was 0.735, the phosphorylation enrichment (Fes) was 0.942 and the phosphorylation enrichment (EPHB2) was 0.502. The phosphorylation enrichment (FGFR3) was 0.633, the SH2 binding enrichment (Grb2 SH2) was 0.731 and the SH2 binding enrichment (c-Src SH2) was 0.466. It also gave an SH2 binding enrichment (SHP2-C SH2) of 0.813.

In the case of GIVEDYRPPVF [ACVRL1_Y421_F425V_YF], the phosphorylation enrichment (FGFR1) is reported as 0.414, the phosphorylation enrichment (Fer (mouse)) is reported as 0.422 and the phosphorylation enrichment (Fyn) is reported as 0.455. It also gave a phosphorylation enrichment (AncSZ) of 0.767, a phosphorylation enrichment (c-Src) of 0.414 and a phosphorylation enrichment (EPHB1) of 0.372. The phosphorylation enrichment (MERTK) was 0.445, the phosphorylation enrichment (Jak2) was 0.625 and the phosphorylation enrichment (Hck) was 0.39. It also gave a phosphorylation enrichment (c-Abl (mouse)) of 0.63, a phosphorylation enrichment (Fes) of 0.777 and a phosphorylation enrichment (EPHB2) of 0.46. The phosphorylation enrichment (FGFR3) was 0.51, the SH2 binding enrichment (Grb2 SH2) was 0.726 and the SH2 binding enrichment (c-Src SH2) was 0.353. For the same sequence, the SH2 binding enrichment (SHP2-C SH2) was 0.738.

Sequence GIVKAYYVHAR [AIPL1_Y267_R270H] has a phosphorylation enrichment (FGFR1) of 0.482, a phosphorylation enrichment (Fer (mouse)) of 0.452 and a phosphorylation enrichment (Fyn) of 0.418. For the same sequence, the phosphorylation enrichment (AncSZ) was 0.732, the phosphorylation enrichment (c-Src) was 0.538 and the phosphorylation enrichment (EPHB1) was 0.498. The phosphorylation enrichment (MERTK) was 0.436, the phosphorylation enrichment (Jak2) was 0.866 and the phosphorylation enrichment (Hck) was 0.412. It also gave a phosphorylation enrichment (c-Abl (mouse)) of 0.569, a phosphorylation enrichment (Fes) of 0.736 and a phosphorylation enrichment (EPHB2) of 0.51. The phosphorylation enrichment (FGFR3) was 0.514, the SH2 binding enrichment (Grb2 SH2) was 1.23 and the SH2 binding enrichment (c-Src SH2) was 0.982. It also gave an SH2 binding enrichment (SHP2-C SH2) of 1.05.

Sequence GKLIFYDLRGE [KARS1_Y145] has a phosphorylation enrichment (FGFR1) of 0.517, a phosphorylation enrichment (Fer (mouse)) of 0.432 and a phosphorylation enrichment (Fyn) of 0.474. The phosphorylation enrichment (AncSZ) was 1.02, the phosphorylation enrichment (c-Src) was 0.413 and the phosphorylation enrichment (EPHB1) was 0.492. The phosphorylation enrichment (MERTK) was 0.436, the phosphorylation enrichment (Jak2) was 0.823 and the phosphorylation enrichment (Hck) was 0.531. The phosphorylation enrichment (c-Abl (mouse)) was 0.664, the phosphorylation enrichment (Fes) was 0.984 and the phosphorylation enrichment (EPHB2) was 0.637. For the same sequence, the phosphorylation enrichment (FGFR3) was 0.584, the SH2 binding enrichment (Grb2 SH2) was 0.947 and the SH2 binding enrichment (c-Src SH2) was 0.688. The SH2 binding enrichment (SHP2-C SH2) was 0.956.

Work on GKMSQYLESMQ [CYB5R3_Y130] yielded a phosphorylation enrichment (FGFR1) of 0.444, a phosphorylation enrichment (Fer (mouse)) of 0.373 and a phosphorylation enrichment (Fyn) of 0.457. The phosphorylation enrichment (AncSZ) was 0.646, the phosphorylation enrichment (c-Src) was 0.517 and the phosphorylation enrichment (EPHB1) was 0.336. The phosphorylation enrichment (MERTK) was 0.435, the phosphorylation enrichment (Jak2) was 0.539 and the phosphorylation enrichment (Hck) was 0.494. It also gave a phosphorylation enrichment (c-Abl (mouse)) of 0.548, a phosphorylation enrichment (Fes) of 0.583 and a phosphorylation enrichment (EPHB2) of 0.454. It also gave a phosphorylation enrichment (FGFR3) of 0.426, an SH2 binding enrichment (Grb2 SH2) of 0.657 and an SH2 binding enrichment (c-Src SH2) of 0.415. For the same sequence, the SH2 binding enrichment (SHP2-C SH2) was 0.715.

Sequence GKSDPYHATSG [GJA1_Y247] has a phosphorylation enrichment (FGFR1) of 0.346, a phosphorylation enrichment (Fer (mouse)) of 0.381 and a phosphorylation enrichment (Fyn) of 0.386. For the same sequence, the phosphorylation enrichment (AncSZ) was 0.426, the phosphorylation enrichment (c-Src) was 0.404 and the phosphorylation enrichment (EPHB1) was 0.355. For the same sequence, the phosphorylation enrichment (MERTK) was 0.354, the phosphorylation enrichment (Jak2) was 0.519 and the phosphorylation enrichment (Hck) was 0.365. The phosphorylation enrichment (c-Abl (mouse)) was 0.527, the phosphorylation enrichment (Fes) was 0.508 and the phosphorylation enrichment (EPHB2) was 0.349. For the same sequence, the phosphorylation enrichment (FGFR3) was 0.402, the SH2 binding enrichment (Grb2 SH2) was 0.761 and the SH2 binding enrichment (c-Src SH2) was 0.518. The SH2 binding enrichment (SHP2-C SH2) was 0.588.

With GLAKEYTDPET [CSNK1G2_Y195_I196T] the phosphorylation enrichment (FGFR1) was 0.323, the phosphorylation enrichment (Fer (mouse)) was 0.398 and the phosphorylation enrichment (Fyn) was 0.634. The phosphorylation enrichment (AncSZ) was 1.28, the phosphorylation enrichment (c-Src) was 0.339 and the phosphorylation enrichment (EPHB1) was 0.494. For the same sequence, the phosphorylation enrichment (MERTK) was 0.473, the phosphorylation enrichment (Jak2) was 1.9 and the phosphorylation enrichment (Hck) was 0.579. The phosphorylation enrichment (c-Abl (mouse)) was 0.662, the phosphorylation enrichment (Fes) was 1.07 and the phosphorylation enrichment (EPHB2) was 0.736. The phosphorylation enrichment (FGFR3) was 0.92, the SH2 binding enrichment (Grb2 SH2) was 0.873 and the SH2 binding enrichment (c-Src SH2) was 1.1. For the same sequence, the SH2 binding enrichment (SHP2-C SH2) was 0.671.

For GLCSFYETSKM [MAGED2_Y449_R446C_YF], the phosphorylation enrichment (FGFR1) was 0.568, the phosphorylation enrichment (Fer (mouse)) was 1.95 and the phosphorylation enrichment (Fyn) was 0.652. The phosphorylation enrichment (AncSZ) was 1.4, the phosphorylation enrichment (c-Src) was 0.83 and the phosphorylation enrichment (EPHB1) was 0.71. For the same sequence, the phosphorylation enrichment (MERTK) was 0.706, the phosphorylation enrichment (Jak2) was 1.34 and the phosphorylation enrichment (Hck) was 0.794. It also gave a phosphorylation enrichment (c-Abl (mouse)) of 0.82, a phosphorylation enrichment (Fes) of 1.45 and a phosphorylation enrichment (EPHB2) of 0.903. For the same sequence, the phosphorylation enrichment (FGFR3) was 0.931, the SH2 binding enrichment (Grb2 SH2) was 0.895 and the SH2 binding enrichment (c-Src SH2) was 0.797. The SH2 binding enrichment (SHP2-C SH2) was 0.689.

In the case of GMEIVYVYVKK [DNAI2_Y5], the phosphorylation enrichment (FGFR1) is reported as 0.967, the phosphorylation enrichment (Fer (mouse)) is reported as 0.545 and the phosphorylation enrichment (Fyn) is reported as 0.545. For the same sequence, the phosphorylation enrichment (AncSZ) was 1.24, the phosphorylation enrichment (c-Src) was 0.632 and the phosphorylation enrichment (EPHB1) was 0.731. It also gave a phosphorylation enrichment (MERTK) of 0.416, a phosphorylation enrichment (Jak2) of 0.964 and a phosphorylation enrichment (Hck) of 0.899. The phosphorylation enrichment (c-Abl (mouse)) was 0.813, the phosphorylation enrichment (Fes) was 1.23 and the phosphorylation enrichment (EPHB2) was 0.665. The phosphorylation enrichment (FGFR3) was 1.1, the SH2 binding enrichment (Grb2 SH2) was 0.688 and the SH2 binding enrichment (c-Src SH2) was 0.474. It also gave an SH2 binding enrichment (SHP2-C SH2) of 0.722.

With GMSQAYSSSQR [DES_Y5] the phosphorylation enrichment (FGFR1) was 0.32, the phosphorylation enrichment (Fer (mouse)) was 0.354 and the phosphorylation enrichment (Fyn) was 0.309. The phosphorylation enrichment (AncSZ) was 0.466, the phosphorylation enrichment (c-Src) was 0.37 and the phosphorylation enrichment (EPHB1) was 0.379. It also gave a phosphorylation enrichment (MERTK) of 0.337, a phosphorylation enrichment (Jak2) of 0.477 and a phosphorylation enrichment (Hck) of 0.325. For the same sequence, the phosphorylation enrichment (c-Abl (mouse)) was 0.475, the phosphorylation enrichment (Fes) was 0.685 and the phosphorylation enrichment (EPHB2) was 0.321. It also gave a phosphorylation enrichment (FGFR3) of 0.382, an SH2 binding enrichment (Grb2 SH2) of 0.598 and an SH2 binding enrichment (c-Src SH2) of 0.392. The SH2 binding enrichment (SHP2-C SH2) was 0.417.

In the case of GMTLSYLFREP [NDUFS8_Y74], the phosphorylation enrichment (FGFR1) is reported as 0.606, the phosphorylation enrichment (Fer (mouse)) is reported as 0.367 and the phosphorylation enrichment (Fyn) is reported as 0.397. It also gave a phosphorylation enrichment (AncSZ) of 0.763, a phosphorylation enrichment (c-Src) of 0.505 and a phosphorylation enrichment (EPHB1) of 0.501. For the same sequence, the phosphorylation enrichment (MERTK) was 0.365, the phosphorylation enrichment (Jak2) was 0.848 and the phosphorylation enrichment (Hck) was 0.509. For the same sequence, the phosphorylation enrichment (c-Abl (mouse)) was 0.652, the phosphorylation enrichment (Fes) was 0.877 and the phosphorylation enrichment (EPHB2) was 0.579. For the same sequence, the phosphorylation enrichment (FGFR3) was 0.633, the SH2 binding enrichment (Grb2 SH2) was 1.23 and the SH2 binding enrichment (c-Src SH2) was 0.915. The SH2 binding enrichment (SHP2-C SH2) was 1.4.

For GNFSGYDDAWD [POLR1C_Y36_YF], the phosphorylation enrichment (FGFR1) was 0.428, the phosphorylation enrichment (Fer (mouse)) was 0.479 and the phosphorylation enrichment (Fyn) was 0.454. The phosphorylation enrichment (AncSZ) was 1.14, the phosphorylation enrichment (c-Src) was 0.584 and the phosphorylation enrichment (EPHB1) was 0.574. The phosphorylation enrichment (MERTK) was 0.48, the phosphorylation enrichment (Jak2) was 1.28 and the phosphorylation enrichment (Hck) was 0.461. It also gave a phosphorylation enrichment (c-Abl (mouse)) of 1.03, a phosphorylation enrichment (Fes) of 1.43 and a phosphorylation enrichment (EPHB2) of 0.568. For the same sequence, the phosphorylation enrichment (FGFR3) was 0.731, the SH2 binding enrichment (Grb2 SH2) was 0.832 and the SH2 binding enrichment (c-Src SH2) was 4.46. The SH2 binding enrichment (SHP2-C SH2) was 0.592.

GPGGDYAAMGA [ERBB3_Y1276] showed a phosphorylation enrichment (FGFR1) of 0.776, a phosphorylation enrichment (Fer (mouse)) of 0.488 and a phosphorylation enrichment (Fyn) of 0.414. For the same sequence, the phosphorylation enrichment (AncSZ) was 0.6, the phosphorylation enrichment (c-Src) was 0.494 and the phosphorylation enrichment (EPHB1) was 1.3. The phosphorylation enrichment (MERTK) was 0.511, the phosphorylation enrichment (Jak2) was 0.604 and the phosphorylation enrichment (Hck) was 0.527. The phosphorylation enrichment (c-Abl (mouse)) was 0.572, the phosphorylation enrichment (Fes) was 0.766 and the phosphorylation enrichment (EPHB2) was 0.903. For the same sequence, the phosphorylation enrichment (FGFR3) was 0.605, the SH2 binding enrichment (Grb2 SH2) was 0.771 and the SH2 binding enrichment (c-Src SH2) was 1.09. It also gave an SH2 binding enrichment (SHP2-C SH2) of 0.863.
